# Data taken from US20210188909A1 (SANFORD BURNHAM PREBYS MEDICAL DISCOVERY INSTITUTE, published 2021).
# Ends that are not written are not given here.
# T1: ligand-binding b1b2 domain of the cell and tissue penetration receptor NRP-1 (UniProt O14786 273-586, limits assumed)
# T1 construct: domain: b1b2; Coated on magnetic beads; also called NRP-1 b1b2; NRP-1 b1b2 domain
# T1 sequence (looked up): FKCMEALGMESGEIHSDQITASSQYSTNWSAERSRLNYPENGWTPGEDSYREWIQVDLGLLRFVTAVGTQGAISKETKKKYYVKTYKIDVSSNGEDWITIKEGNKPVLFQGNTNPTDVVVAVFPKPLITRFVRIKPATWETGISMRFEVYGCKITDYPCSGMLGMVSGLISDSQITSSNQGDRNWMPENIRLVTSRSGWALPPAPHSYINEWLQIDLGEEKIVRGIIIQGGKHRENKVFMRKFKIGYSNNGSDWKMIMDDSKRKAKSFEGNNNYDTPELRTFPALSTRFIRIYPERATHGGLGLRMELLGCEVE
# T2: recombinant 6x-His-tagged p32 protein (gC1qR/p32) (UniProt Q07021 74-282)
# T2 construct: Predominantly (>97%) a trimer by sedimentation velocity; also called gC1q/p32 receptor; recombinant p32
# T2 sequence (looked up): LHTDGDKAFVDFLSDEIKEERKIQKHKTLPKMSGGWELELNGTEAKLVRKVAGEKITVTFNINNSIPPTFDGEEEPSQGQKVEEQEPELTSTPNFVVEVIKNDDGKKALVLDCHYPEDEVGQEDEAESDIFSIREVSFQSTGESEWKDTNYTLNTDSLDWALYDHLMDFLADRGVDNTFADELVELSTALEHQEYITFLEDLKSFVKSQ
# T3: NRP-1 (control protein in the fluorescence polarization assay) (UniProt O14786 273-586, limits assumed)
# T3 construct: also called neuropilin-1
# T3 sequence (looked up): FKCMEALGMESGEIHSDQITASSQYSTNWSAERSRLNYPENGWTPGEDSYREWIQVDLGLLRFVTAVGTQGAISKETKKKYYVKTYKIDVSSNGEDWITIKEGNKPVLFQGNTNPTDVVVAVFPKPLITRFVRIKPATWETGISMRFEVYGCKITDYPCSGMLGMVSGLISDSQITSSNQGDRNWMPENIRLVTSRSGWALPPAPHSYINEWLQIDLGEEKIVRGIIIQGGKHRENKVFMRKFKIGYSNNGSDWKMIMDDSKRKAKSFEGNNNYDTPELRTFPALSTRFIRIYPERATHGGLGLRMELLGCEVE
# Experiments:
# [1] = biological target: T1, ligand-binding b1b2 domain of the cell …; assay: T7 phage clone binding to protein-coated magnetic beads
# [2] = biological target: T4, BSA (UniProt P02769 25-607); assay: as above
# T4 construct: Control protein on beads
# T4 sequence (P02769 25-607 limits assumed): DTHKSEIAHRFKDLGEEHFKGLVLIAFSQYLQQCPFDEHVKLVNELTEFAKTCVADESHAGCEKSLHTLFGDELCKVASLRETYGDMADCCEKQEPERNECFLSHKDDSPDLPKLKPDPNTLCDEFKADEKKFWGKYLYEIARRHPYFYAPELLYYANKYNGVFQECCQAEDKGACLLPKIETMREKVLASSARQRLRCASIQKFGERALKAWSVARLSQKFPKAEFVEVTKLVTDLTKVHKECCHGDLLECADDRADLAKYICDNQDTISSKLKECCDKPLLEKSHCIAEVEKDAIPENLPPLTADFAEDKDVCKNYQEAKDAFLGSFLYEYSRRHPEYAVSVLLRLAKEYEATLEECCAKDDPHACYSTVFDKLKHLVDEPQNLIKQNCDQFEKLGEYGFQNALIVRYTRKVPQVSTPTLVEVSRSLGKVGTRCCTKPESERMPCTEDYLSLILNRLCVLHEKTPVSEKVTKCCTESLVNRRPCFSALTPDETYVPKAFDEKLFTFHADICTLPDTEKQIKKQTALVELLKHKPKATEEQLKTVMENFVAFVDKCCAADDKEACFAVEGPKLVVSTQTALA
# [3] = biological target: T2, recombinant 6x-His-tagged p32 protein …; assay: T7 phage clone binding to immobilized p32 (FIG. 3)
# [4] = biological target: T1, ligand-binding b1b2 domain of the cell …; assay: uPA-treated T7 phage binding to NRP-1 b1b2; reference untreated phage
# [5] = biological target: T3, NRP-1 (control protein in the …); assay: fluorescence polarization assay with synthetic peptide, NRP-1 as control protein
# [6] = biological target: T2, recombinant 6x-His-tagged p32 protein …; assay: T7 phage binding to immobilized p32; reference LyP-1-displaying phage
Binder,binding result [1],binding result [2],other results
"CTRGSRSKC (not fully specified (bridges); cysteine pairing not given here; also: displayed on T7 phage, also called RGXRS-displaying phage) [T7 phage displaying CTRGSRSKC (SEQ ID NO: 177)]",no binding,no binding,
GRGGRSRKLAAALE (the C-terminal KLAAALE element is encoded by the phage genomic DNA; also called RGXRS-displaying phage) [T7 phage displaying GRGGRSRKLAAALE (SEQ ID NO: 161)],no binding,no binding,
RMRRIDR (also called phage clone selected on NRP-1 b1b2 domain) [T7 phage displaying RMRRIDR (SEQ ID NO: 190)],,,binding result [3]: no binding
"CQRGTRSRC (not fully specified (bridges); cysteine pairing not given here; also: displayed on T7 phage, also called RGXRS-displaying phage) [T7 phage displaying CQRGTRSRC (SEQ ID NO: 182)]",no binding,no binding,
"CARGKRSLC (not fully specified (bridges); cysteine pairing not given here; also: displayed on T7 phage, also called RGXRS-displaying phage) [T7 phage displaying CARGKRSLC (SEQ ID NO: 184)]",no binding,no binding,
"CKRGSRSSC (not fully specified (bridges); cysteine pairing not given here; also: displayed on T7 phage, also called RGXRS-displaying phage) [T7 phage displaying CKRGSRSSC (SEQ ID NO: 181)]",no binding,no binding,
SMNEVRKR (also called phage clone selected on NRP-1 b1b2 domain) [T7 phage displaying SMNEVRKR (SEQ ID NO: 192)],,,binding result [3]: no binding
"CVRGGRARC (not fully specified (bridges); cysteine pairing not given here; also: displayed on T7 phage, carries RGGRA rather than RGXRS) [T7 phage displaying CVRGGRARC (SEQ ID NO: 183)]",no binding,,
"CKRGNRSVC (not fully specified (bridges); cysteine pairing not given here; also: displayed on T7 phage, also called RGXRS-displaying phage) [T7 phage displaying CKRGNRSVC (SEQ ID NO: 178)]",no binding,no binding,
"CKRGAR (not fully specified, not shown: T7 phage capsid (display carrier)) [uPA-treated T7 phage displaying the TT1 peptide]",,,fold enhancement of binding [4]: 180 fold
"CARGARTKC (not fully specified (bridges); cysteine pairing not given here; also: displayed on T7 phage, carries RGART rather than RGXRS) [T7 phage displaying CARGARTKC (SEQ ID NO: 176)]",no binding,,
RKRGGRS (also called RGXRS-displaying phage) [T7 phage displaying RKRGGRS (SEQ ID NO: 166)],no binding,no binding,
"CKRGARSTC (also: cyclic (CycTT1), ring type not given here, used labeled and unlabeled, label and position not given here, Free synthetic peptide used in fluorescence polarization assays; also called CycTT1; cyclic TT1 Peptide) [synthetic TT1 Peptide CKRGARSTC (SEQ ID NO: 3), cyclic]",,,binding result [5]: no binding
SGVSRDR (also called phage clone selected on NRP-1 b1b2 domain) [T7 phage displaying SGVSRDR (SEQ ID NO: 191)],,,binding result [3]: no binding
CKRGARSTC (The phage protein it is fused to is not described; also called TT1 phage; TT phage) [T7 phage displaying the TT1 peptide CKRGARSTC (SEQ ID NO: 3)],no binding,no binding,fold stronger phage binding than the LyP-1 peptide [6]: ~15 fold
SRLGRMR (also called phage clone selected on NRP-1 b1b2 domain) [T7 phage displaying SRLGRMR (SEQ ID NO: 193)],,,binding result [3]: no binding
